Measurements taken from the DeepSol protein solubility set.

Experiment: soluble on expression in E. coli; label from the status in PepcDB or PDB records

Row | Sequence | soluble on expression in E. coli
1 | MAPRSYWKGYLKLSLVTCPVTLMPATSEAERVRFRTLNGRTGHPVVSRYLDAETGDVVDDDDQVKGYPRSETEHVILEEEELDAVALESARTIDIDCFVPSDEIAWIWYDRPHYLMPADPIGEEAFAVIREAMRATDRSGVARLVLGGRERAVLLMPRGEGIILWTLRYGDEVRPEEAYFGDLAAGKPDPKALTLVKRLIEERTRTWEPGMVEDPVQENLLELIRSKKPKKRSRKAGAKAPKGGDNVVSIMDALRKSIEGKG | not soluble
2 | MAEERGRPQYRPNCNGLSSYYRERFGSHSPEVYLNLRISGFDDRLEREQIKQYLTQELKKYAPFEIKVVKNPEEDERLAYVNFERNDCARKVRYTLMDRLKSVLGKRVQCDPAGILRDQEGKYIPDRFNRAQHGADSKREGGSGSGNRGRPTKEPSTWRLKQDDDEATRTLFVGNMPSDVKEREIRHVFEEHGKVEEVDIKTPINTDAAYAFVMFQTVDQAIQAKAEEQDRPIRAGGSRMKIGYGKSQVSRRLFVGGLGSWCDKEILQKAFGEFGFVENIDYDHGQPYAYVVYENTHTSQEACRSLRGACISKGNHPIMVDYAKDLTAQPEKQQFMRKRRASKSPVGASAVRTPPGSPKDVVRNFAELEEAYAATWSGKMALKKTDYPVKFYRVYGAERLPVKLLRDEDDVPLRLLITQRLSLSSQNLLFDKLASCSSKELSLGVITGKKELSDLQPLVNYFTNKEAAGVVTVPGGILYIFPFCEFALKLLAEFTPQVNVFNENCPFLLGALAVRAPGTP | not soluble
3 | MGSDKIHHHHHHMSRDLPPLNALRAFESTARFGSVSQAAEQLSVTHGAVSRQLKVLEEHLGVSLFSKDGRGLKLTDAGIRLRDASADAFDRLRSVCAELSKGSVDAPFVLGCSGSLLARWFIPRLSRLNAELPDLRLHLSAGEGDLDPRRPGLDALLVFAEPPWPADMQVFELASERIGPVLSPRFARFESMRDAPANALLEESLLQTTSRPQAWPSWAQQNGIDPDALRYGQGFEHLYYLLEAAVAGLGIAIAPEPLVIDDLKAGRLAAPWGFSETPAQLALWVPRRAADGRARQLAQWLKNELKRSGDPIRN | not soluble
4 | SLPSYVVPEEPLLSAPTVAELTQAVNGAVVSGDVALREREVMGVLAAGMTADHVLERLTDGMAVITPGDRSDVVLAVASAHAAEGFPSLSCIVLNGGFQLHPAIAALVSGLRLRLPVIATALGTYDTASAAASARGLVTATSQRKIDTALELMDRHVDVAGLLAQLTI | soluble
5 | MGSDKIHHHHHHMIRKFVNRKRELEVLEKARLFVVHGRRRVGKTALLRKFLENKRYEKDVEGFSQEISSFINAPVRFESSRDAFKFLREQGKLIVILDEFPYLIEADKGIVSEFQEIVDVMLDNSDVTLILCGSSVGMMEREVPSYKSPLYGRAGGILKVQPFRFFDMVEWFGKDFERLLRIYDVTWGIPKYMEFFRTGSDEEIIANFFDPSAFLFNEARLLLLEELRNPSRYMQIIEAITLWKTRLNEIAQYTGIEPKDLPSYLRVLSNLGIIKREVPITERKGKRWVYVIEDEYFRFYHRFVSPHYEEIESLNPEPAIEDFRKNFNAYLGRTFEKVSREFLTRVIKPSKVGRWWHKGEEIDIVALKGEERKALLVEVKWKELSEKEARRILKDLEHKGELIGMEKWKRCYGLIAKKIENKESIKGEGFFLWDLKDFKSEMI | not soluble
6 | MIDLAKDHLKKVLSLCGANRDCEYYPCHYENQSCLWCYCPFYPCEDENLGEFVKRKDGSLIWSCMKCNWIHKPEIASEVLKEITELTKDKKINDSIEFIDNHEILMNIKRRVEEKLGKDNSV | not soluble
7 | MGSDKIHHHHHHMASILAVDVGTTSIKAGIVSTENFEAESTQSTRAVVEYPKKHWAEKDPEKLWNSIVEVCKPLAEKANPDAIVFGAHMAGVVPVDGEGNALRNIITWLDERAAGLPEDVWKGLIKIQGYSLTKLIKFLRLTGGAPSRTGKDPISKIVWIRENEPDVFGKTFKMLDVRGYLVARATGNFVTSPDEAHLTWLADTRGGKARWSESILKDYALSASLFPEIKNCTEIAGYLRPEVRKEFGLEGDVPVMVGSGDVAAAAVGSGAVKDYECHIYVGTSDWVAAHIPQRKTDIFHFIGSLLSAIPEKYLLIAEQEVAAGALEWAMRLVGIQGEYELVKELVEKAPAGKLIFMPWFYGERAPIDDPYVRGGLVNVGLDSGREEVLRAMMEGVALNIKWVFGYVEKMTAPQQMVSIVGGGALFDIWCQIISNAVRRPLRRIKHPEETGLRGLATMAAVGLGEESFESAAAKFEVDRVFKPDDEEAKVYDRLFEYYKELYSKLKKVYRKLNSAEY | not soluble
8 | MASGKRKGLSFDDKKTRLLELFNETCDFYTLKELEKIAPKLKGIITQSVKDVLQSLVDDDLVNSDKCGVQTIYWCLPSEAVAKRQRRLDALQQQLAEKRQKLTALQRQLVQVQAGREDSVERTAVLERLAACEAAWRERQRTLESYLECDPDVLAQRETETKTLIEQANRWTDNLYVIRSYVQRNLGVDLDLFDQQFELKPALQYLE | not soluble
9 | MESIVDKQAVKHFLLQLQDKICQQLEATDGQAQFIEDAWQREPGEKLGGGGRTRVMREGAVFEQGGVNFSHVFGEQMPASATAHRPELAGRRFEAMGVSLVMHPKNPYVPTSHANVRFFIAEKEGEAPIWWFGGGFDLTPFYPFVEDGQHWHQTAKNICAPFGSEIYNEHKAWCDRYFYLPHRNETRGIGGLFFDDLNEWSFEQCFAYMQAVGEGYTQAYVPIVEKRKNTPFTERERQFQLYRRGRYVEFNLVLDRGTLFGLQTGGRTESILMSMPPLARWEYAYQPQAGTPEAKLSEFLVPREW | not soluble
10 | MSLSELIDNRAQRVRTLKGIIKRLHAGDAPDEVRNSLKELVCQTDYSEVMAMEQELIADGMPVEEIQGMCDLHSQVTREVLVQLAPAPVPPGHPVDTFRRENKALRESAARLQKAMNGVLETADDGDASARLLEWRQALNELQDVDKHYQRKEHLLSTCLERHGITGPSKVMWGKDDQIRELLKDTSVALRQSDTSVAELKVLAATTGAAAAGAVHEMIYKEEQILLPICLERFTADEWAEIWASSPRYGWCLVEPRQGYKPFTSEAAGRASVDGGVSLPTGALALEQLIAIFSTLPVDLTFVDANDRVAFFSEGPSRVFARSRTIVGRMVQNCHPPRSVDVVERILSDFREGRQNVAEFWLQFVGRFVHIRYFAVRSEDGRYLGTLEVTQDVGPIRALEGERRLLEYAEPSEGHHHHHH | soluble
11 | MCGDCVEKEYPNRGNTCLENGSFLLNFTGCAVCSKRDFMLITNKSLKEEDGEEIVTYDPDLCKNCHHVIARHEYTFSIMDEFQEYTMLCLLCAKPKILSVFSLMTPDKLEHHHHHH | soluble
12 | GAMAMSGGLPELGSKISLISKADIRYEGRLYTVDPQECTIALSSVRSFGTEDRDTQFQIAPQSQIYDYILFRGSDIKDIRVVNNHTLP | soluble
13 | MGSDKIHHHHHHMQILTVQMNIAGEWRDVAVVGFYAPEKGTGGPCVLNYDIEHVTSYFHQFAQTAVSVSLPVDNIPLRSPHWHRFLEDIMPAGSSRDYWVKRLGLQDMPNLERDFQLLKYGTIAPIGNLRIKESVPEKAKKSLPVTFSIADVSELQIDFIEYAQSRGAAAGGASGAGGAAPKLLVRLNEQQGVWIDTFQDDPRNLDQPYLVKFPRGKTTLDSDILRAEYHFYHELTQLGFETISVESMKLIEVERGPSLWLPRFDYGVEAGAMVSYGMESVYAILGEPTAKPLLHADVIRRLLAEFNKKENYGNTRTPLDVEAGLEGKSGIEAFVVEWVRRDLLNIAFGNSDNHGRNTSFIKHGNRVQLAPIYDFAPMKADYEMITRTFTWGEGMELGGVYNFPAIAEHLSDLLSPNDLMSALNETAVRLLGLELRLRQRGVPESILAHSGIGFATLEARMQQWGLL | not soluble
14 | MQKVCEKRIDSVVASAVEGSGMFYAVRFEPPPSKTCFDVTLKTYGPPYTEYIVTVAIPPKFPFSPPAITCKTDKNMKFLFLEENQWKPSTGIVAVLIEACSVISRRDLVPRAPVLPRIRPPQARTPTSASPAKSPQKAD | not soluble
15 | MSLAKYFDPHIHMVSRTTDDYQNMAAAGITGVIEPAFWQGQARTSVGSFIDYFDTLLGWERFRASMFGIHHFCTIGLNPKEANDLSVANEVLEILPRYLVKDGVVAVGEIGYDDITPEEDRFLAAQLELARQFNLPVLVHTPHRDKIGGTKRTLAVIREVGIAENLVIIDHLNELTLPLVLDSDCWRGHSIYPNTKMSEQRMVALLQEYGSEKMVVNSAADWGISDPLKVPKTGQAMLAAGFSEAQVEQVLFHNPVDFFAQSGQLDKQLVSTEGHHHHHH | not soluble
